Assay results as given in FireProtDB (doi:10.1016/j.jmb.2005.09.091).

B1: Guanyl-specific ribonuclease Sa, P05798 (parent)
chain: DVSGTVCLSALPPEATDTLNLIASDGPFPYSQDGVVFQNRESVLPTQSYGYYHEYTVITPGARTRGTRRIITGEATQEDYYTGDHYATFSLIDQTC

Variants of: B1
Details: Kitasatospora aureofaciens, Thermal, structure 1RGG, whole UniProt chain shown
[1] = pH 3, 38.6 °C, CD, Glycine 30 mM
[2] = pH 8.5, 45.9 °C, CD, Mops 30 mM

With D79L the “ddG of mutation (higher = less stable)” value (pH 7, 52.6 °C, DSC, Mops 30 mM) was -2.7 kcal/mol, the “heat capacity change of unfolding” value (pH 7, 52.6 °C, DSC, Mops 30 mM) was 1.52 kcal/mol/K and the Tm (pH 7, CD, Mops 30 mM) was 56.6 °C. The “change of melting temperature, mutant - wild type (higher = more stable)” value (“change of melting temperature, mutant” below) (pH 7, CD, Mops 30 mM) was 8.7 °C and the “unfolding enthalpy (van 't Hoff)” value (pH 7, CD, Mops 30 mM) was 75 kcal/mol.

In the case of D79E, the “ddG of mutation (higher = less stable)” value (pH 7, 52.6 °C, CD, Mops 30 mM) is reported as 0.3 kcal/mol, the “heat capacity change of unfolding” value (pH 7, 52.6 °C, CD, Mops 30 mM) is reported as 1.52 kcal/mol/K and the “ddG of mutation (higher = less stable)” value (pH 7, 52.6 °C, DSC, Mops 30 mM) is reported as 0.3 kcal/mol. The “heat capacity change of unfolding” value (pH 7, 52.6 °C, DSC, Mops 30 mM) was 1.52 kcal/mol/K, the Tm (pH 7, CD, Mops 30 mM) was 47 °C and the “change of melting temperature, mutant” value (pH 7, CD, Mops 30 mM) was -0.8 °C. The “unfolding enthalpy (van 't Hoff)” value (pH 7, CD, Mops 30 mM) was 90 kcal/mol.

With D79F the “ddG of mutation (higher = less stable)” value [1] was 0.3 kcal/mol, the “heat capacity change of unfolding” value [1] was 1.52 kcal/mol/K and the Tm (pH 3, CD, Glycine 30 mM) was 38.5 °C. The “change of melting temperature, mutant” value (pH 3, CD, Glycine 30 mM) was -1.4 °C, the “unfolding enthalpy (van 't Hoff)” value (pH 3, CD, Glycine 30 mM) was 67 kcal/mol and the “ddG of mutation (higher = less stable)” value (pH 7, 52.6 °C, DSC, Mops 30 mM) was -3 kcal/mol. The “heat capacity change of unfolding” value (pH 7, 52.6 °C, DSC, Mops 30 mM) was 1.52 kcal/mol/K, the Tm (pH 7, CD, Mops 30 mM) was 57.8 °C and the “change of melting temperature, mutant” value (pH 7, CD, Mops 30 mM) was 10 °C. The “unfolding enthalpy (van 't Hoff)” value (pH 7, CD, Mops 30 mM) was 89 kcal/mol, the “ddG of mutation (higher = less stable)” value [2] was -3.7 kcal/mol and the “heat capacity change of unfolding” value [2] was 1.52 kcal/mol/K. The Tm (pH 8.5, CD, Mops 30 mM) was 51.8 °C, the “change of melting temperature, mutant” value (pH 8.5, CD, Mops 30 mM) was 13.1 °C and the “unfolding enthalpy (van 't Hoff)” value (pH 8.5, CD, Mops 30 mM) was 82 kcal/mol.

With D79K the “ddG of mutation (higher = less stable)” value (pH 7, 52.6 °C, CD, Mops 30 mM) was -2.3 kcal/mol, the “heat capacity change of unfolding” value (pH 7, 52.6 °C, CD, Mops 30 mM) was 1.52 kcal/mol/K and the “ddG of mutation (higher = less stable)” value (pH 7, 52.6 °C, DSC, Mops 30 mM) was -2.3 kcal/mol. For the same variant, the “heat capacity change of unfolding” value (pH 7, 52.6 °C, DSC, Mops 30 mM) was 1.52 kcal/mol/K, the Tm (pH 7, CD, Mops 30 mM) was 55.4 °C and the “change of melting temperature, mutant” value (pH 7, CD, Mops 30 mM) was 7.6 °C. For the same variant, the “unfolding enthalpy (van 't Hoff)” value (pH 7, CD, Mops 30 mM) was 88 kcal/mol.

For D79N, the “ddG of mutation (higher = less stable)” value [1] was 1.2 kcal/mol, the “heat capacity change of unfolding” value [1] was 1.52 kcal/mol/K and the Tm (pH 3, CD, Glycine 30 mM) was 35.1 °C. For the same variant, the “change of melting temperature, mutant” value (pH 3, CD, Glycine 30 mM) was -4.8 °C, the “unfolding enthalpy (van 't Hoff)” value (pH 3, CD, Glycine 30 mM) was 69 kcal/mol and the “ddG of mutation (higher = less stable)” value (pH 7, 52.6 °C, CD, Mops 30 mM) was -1.8 kcal/mol. For the same variant, the “heat capacity change of unfolding” value (pH 7, 52.6 °C, CD, Mops 30 mM) was 1.52 kcal/mol/K, the “ddG of mutation (higher = less stable)” value (pH 7, 52.6 °C, DSC, Mops 30 mM) was -1.8 kcal/mol and the “heat capacity change of unfolding” value (pH 7, 52.6 °C, DSC, Mops 30 mM) was 1.52 kcal/mol/K. For the same variant, the Tm (pH 7, CD, Mops 30 mM) was 53.4 °C, the “change of melting temperature, mutant” value (pH 7, CD, Mops 30 mM) was 5.5 °C and the “unfolding enthalpy (van 't Hoff)” value (pH 7, CD, Mops 30 mM) was 96 kcal/mol. For the same variant, the “ddG of mutation (higher = less stable)” value [2] was -2.3 kcal/mol, the “heat capacity change of unfolding” value [2] was 1.52 kcal/mol/K and the Tm (pH 8.5, CD, Mops 30 mM) was 46.3 °C. For the same variant, the “change of melting temperature, mutant” value (pH 8.5, CD, Mops 30 mM) was 7.6 °C and the “unfolding enthalpy (van 't Hoff)” value (pH 8.5, CD, Mops 30 mM) was 65 kcal/mol.

In the case of D79H, the “ddG of mutation (higher = less stable)” value (pH 7, 52.6 °C, CD, Mops 30 mM) is reported as -1.8 kcal/mol, the “heat capacity change of unfolding” value (pH 7, 52.6 °C, CD, Mops 30 mM) is reported as 1.52 kcal/mol/K and the “ddG of mutation (higher = less stable)” value (pH 7, 52.6 °C, DSC, Mops 30 mM) is reported as -1.8 kcal/mol. For the same variant, the “heat capacity change of unfolding” value (pH 7, 52.6 °C, DSC, Mops 30 mM) was 1.52 kcal/mol/K.

In the case of D79A, the “ddG of mutation (higher = less stable)” value [1] is reported as 0.3 kcal/mol, the “heat capacity change of unfolding” value [1] is reported as 1.52 kcal/mol/K and the Tm (pH 3, CD, Glycine 30 mM) is reported as 38.6 °C. The “change of melting temperature, mutant” value (pH 3, CD, Glycine 30 mM) was -1.3 °C, the “unfolding enthalpy (van 't Hoff)” value (pH 3, CD, Glycine 30 mM) was 75 kcal/mol and the “ddG of mutation (higher = less stable)” value (pH 7, 52.6 °C, CD, Mops 30 mM) was -2.8 kcal/mol. The “heat capacity change of unfolding” value (pH 7, 52.6 °C, CD, Mops 30 mM) was 1.52 kcal/mol/K, the “ddG of mutation (higher = less stable)” value (pH 7, 52.6 °C, DSC, Mops 30 mM) was -2.7 kcal/mol and the “heat capacity change of unfolding” value (pH 7, 52.6 °C, DSC, Mops 30 mM) was 1.52 kcal/mol/K. For the same variant, the Tm (pH 7, CD, Mops 30 mM) was 57 °C, the “change of melting temperature, mutant” value (pH 7, CD, Mops 30 mM) was 9.2 °C and the “unfolding enthalpy (van 't Hoff)” value (pH 7, CD, Mops 30 mM) was 94 kcal/mol. For the same variant, the Tm (pH 8.5, CD, Mops 30 mM) was 50.4 °C, the “change of melting temperature, mutant” value (pH 8.5, CD, Mops 30 mM) was 11.7 °C and the “unfolding enthalpy (van 't Hoff)” value (pH 8.5, CD, Mops 30 mM) was 95 kcal/mol.

In the case of D79R, the “ddG of mutation (higher = less stable)” value (pH 7, 52.6 °C, CD, Mops 30 mM) is reported as -2.7 kcal/mol, the “heat capacity change of unfolding” value (pH 7, 52.6 °C, CD, Mops 30 mM) is reported as 1.52 kcal/mol/K and the “ddG of mutation (higher = less stable)” value (pH 7, 52.6 °C, DSC, Mops 30 mM) is reported as -2.7 kcal/mol. For the same variant, the “heat capacity change of unfolding” value (pH 7, 52.6 °C, DSC, Mops 30 mM) was 1.52 kcal/mol/K, the Tm (pH 7, CD, Mops 30 mM) was 56.8 °C and the “change of melting temperature, mutant” value (pH 7, CD, Mops 30 mM) was 9 °C. The “unfolding enthalpy (van 't Hoff)” value (pH 7, CD, Mops 30 mM) was 92 kcal/mol.

In the case of D79W, the “ddG of mutation (higher = less stable)” value (pH 7, 52.6 °C, CD, Mops 30 mM) is reported as -2.3 kcal/mol, the “heat capacity change of unfolding” value (pH 7, 52.6 °C, CD, Mops 30 mM) is reported as 1.52 kcal/mol/K and the “ddG of mutation (higher = less stable)” value (pH 7, 52.6 °C, DSC, Mops 30 mM) is reported as -2.3 kcal/mol. For the same variant, the “heat capacity change of unfolding” value (pH 7, 52.6 °C, DSC, Mops 30 mM) was 1.52 kcal/mol/K, the Tm (pH 7, CD, Mops 30 mM) was 55.4 °C and the “change of melting temperature, mutant” value (pH 7, CD, Mops 30 mM) was 7.6 °C. For the same variant, the “unfolding enthalpy (van 't Hoff)” value (pH 7, CD, Mops 30 mM) was 88 kcal/mol.

For D79I, the “ddG of mutation (higher = less stable)” value (pH 7, 52.6 °C, CD, Mops 30 mM) was -2.9 kcal/mol, the “heat capacity change of unfolding” value (pH 7, 52.6 °C, CD, Mops 30 mM) was 1.52 kcal/mol/K and the “ddG of mutation (higher = less stable)” value (pH 7, 52.6 °C, DSC, Mops 30 mM) was -2.8 kcal/mol. The “heat capacity change of unfolding” value (pH 7, 52.6 °C, DSC, Mops 30 mM) was 1.52 kcal/mol/K, the Tm (pH 7, CD, Mops 30 mM) was 57.4 °C and the “change of melting temperature, mutant” value (pH 7, CD, Mops 30 mM) was 9.6 °C. The “unfolding enthalpy (van 't Hoff)” value (pH 7, CD, Mops 30 mM) was 89 kcal/mol.

For D79Y, the “ddG of mutation (higher = less stable)” value (pH 7, 52.6 °C, CD, Mops 30 mM) was -2.9 kcal/mol, the “heat capacity change of unfolding” value (pH 7, 52.6 °C, CD, Mops 30 mM) was 1.52 kcal/mol/K and the Tm (pH 7, CD, Mops 30 mM) was 57.4 °C. The “change of melting temperature, mutant” value (pH 7, CD, Mops 30 mM) was 9.6 °C and the “unfolding enthalpy (van 't Hoff)” value (pH 7, CD, Mops 30 mM) was 84 kcal/mol.

In the case of D33A, the “ddG of mutation (higher = less stable)” value (pH 7, 52.6 °C, CD, Mops 30 mM) is reported as 6.2 kcal/mol, the “heat capacity change of unfolding” value (pH 7, 52.6 °C, CD, Mops 30 mM) is reported as 1.52 kcal/mol/K and the “ddG of mutation (higher = less stable)” value (pH 7, 52.6 °C, DSC, Mops 30 mM) is reported as 6 kcal/mol. For the same variant, the “heat capacity change of unfolding” value (pH 7, 52.6 °C, DSC, Mops 30 mM) was 1.52 kcal/mol/K, the Tm (pH 7, CD, Mops 30 mM) was 31.8 °C and the “change of melting temperature, mutant” value (pH 7, CD, Mops 30 mM) was -16 °C. For the same variant, the “unfolding enthalpy (van 't Hoff)” value (pH 7, CD, Mops 30 mM) was 57 kcal/mol.

In the case of Q94K, the “ddG of mutation (higher = less stable)” value [1] is reported as -0.2 kcal/mol, the “heat capacity change of unfolding” value [1] is reported as 1.52 kcal/mol/K and the Tm (pH 3, CD, Glycine 30 mM) is reported as 40.8 °C. The “change of melting temperature, mutant” value (pH 3, CD, Glycine 30 mM) was 0.9 °C, the “unfolding enthalpy (van 't Hoff)” value (pH 3, CD, Glycine 30 mM) was 64 kcal/mol and the “ddG of mutation (higher = less stable)” value (pH 7, 52.6 °C, CD, Mops 30 mM) was -0.3 kcal/mol. For the same variant, the “heat capacity change of unfolding” value (pH 7, 52.6 °C, CD, Mops 30 mM) was 1.52 kcal/mol/K, the Tm (pH 7, CD, Mops 30 mM) was 48.6 °C and the “change of melting temperature, mutant” value (pH 7, CD, Mops 30 mM) was 0.8 °C. For the same variant, the “unfolding enthalpy (van 't Hoff)” value (pH 7, CD, Mops 30 mM) was 96 kcal/mol, the “ddG of mutation (higher = less stable)” value [2] was -1.1 kcal/mol and the “heat capacity change of unfolding” value [2] was 1.52 kcal/mol/K.
